Measurements published in the nanobody polyreactivity screen of Harvey et al. (2022).

Experiment: yeast display, Sf9 membrane polyspecificity reagent, FACS + sequencing; frameworks hold sequencing errors
Outline: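 Using colony PCR, genes from sorted yeast display clones were amplified, then sequenced on MiSeq at 2 × 250 and filtered by CDR length. The clones had been stained with 10% biotinylated, detergent-solubilized Sf9 membrane reagent for 1 hour at 4 °C and sorted by FACS into low and high (top ~1%) gates on anti-HA and streptavidin fluorescence. Polyreactivity labels come from the gate of origin.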

Row | Sequence | polyreactivity (PSR sort gate)
1 | QVQLVESGGGLVQAGGSLRLSCAASGFTIWPYAMGWYRQPPGKERELVAGITRNGGSTYYADSVKGRFTISRDNAKNTVYLQMNSLKPEDTAVYYCNTKYAVEFDYWGQGTQVTVSS | low polyreactivity
2 | QVQLVESGGGLVQAGGSLRLSCAASGFTIWQNAMGWYRQAPGKERELVAGIRLSGGSTYADSVKGRFTISRDNAKNTVYLQMNSLKAEDTAVYYCNAAYKNSPYDYWGQGTQVTVSS | high polyreactivity
3 | QVQLVESGGGLVQAGGSLRLSCAASGFTIYRNAMGWYRQAPGKERELVARIRRTGGRTYYADSVKGRFTISRDNAKNTVNLQMNSLKPEDTAVYYCAAYPGPGARYYYWGQGTQVTVSS | high polyreactivity
4 | QVQLVESGGGLVQAGGSLRLSCAASGFTLADNTMGWYRQAPGKERELVATISGSGSTYYADSVKGRFTISRDNAKNTVYLQMNSLKPEDTAVYYCAAVDTGTEKDLLRLGNGGYDYWGQGTQVTVSS | low polyreactivity
5 | QVQLVESGGGLVQAGGSLRLSCAASGFTLAGYDMGWYRQAPGKEREFVATISTYADSVKGRFTISRDNAKNTVYLQMNSQKPEDSAVYYCAAGRYLWHFTFDYWGQGTQVTVSS | low polyreactivity
6 | QVQLVESGGGLVQAGGSLRLSCAASGFTLATYAMGWYRQAPGKERELVAAITRSGGSTYYADSVKGRFTISRDNAKNTVYLQMNSLKPEDTAVYYCNAREVRYEYNYWGQGTQVTVSS | low polyreactivity
7 | QVQLVESGGGLVQAGGSLRLSCAASGFTLAYYAMGWSRQAPGKERELVAAISWSGDTTYYADSVKGRFTISRDNAKNTVYLQMNSLKPEDTAVYYCAADYYLWGQGTQVTVSS | high polyreactivity
8 | QVQLVESGGGLVQAGGSLRLSCAASGFTLDKYAMGWYRQAPGKERELVAAITWSGGSTYYADSVKGRFTISRDNAKNTVYLQMNSLKPEDTAVYYCNVLRYRLWGQGTQVTVSS | high polyreactivity
9 | QVQLVESGGGLVQAGGSLRLSCAASGFTLDPYALGWYRQAPGKERELVAAIRLSGCSTYYADSVKGRFTISRDNAKNTVYLQMNSLKPEDTAVYYCAADGISHWLYRYDYWGQGTQVTVSS | low polyreactivity
10 | QVQLVESGGGLVQAGGSLRLSCAASGFTLDWYAMGWYRQAPGKERELVAAIWSAGTTYYADSVKGRFTISRDNAKNTVYLQMNSLKPEDTAVYYCATVSDYDFGLYDYWGQGSQVTVSS | low polyreactivity
11 | QVQLVESGGGLVQAGGSLRLSCAASGFTLDWYVMGWYRQATGKERELVAAISSSGGRTYYADSVKGRFTISRDNAKNTVYLQMNSLKPEDTAVYYCAARNQYGGYPYGYDYWGQGTQVTVSS | high polyreactivity
12 | QVQLVESGGGLVQAGGSLRLSCAASGFTLDYYAMGWYRKAPGKERELVAAISFSGGSTYYADSVKGRFTISRDNAKNTVYLQMNSLKPEDTAVYYCAADPQIVWYDYWGQGTQVTVSS | low polyreactivity
13 | QVQLVESGGGLVQAGGSLRLSCAASGFTLEYYAMGWYRQAPGKERELVAAITNGASTNYADSVKGRFTISRDNAKNTVYLQMNSLKPEDTAVYYDYWGQGTQVTVSS | low polyreactivity
14 | QVQLVESGGGLVQAGGSLRLSCAASGFTLFFYAMGWYRQAPGKEREFVASIRTSGGSTYYADSVKGRFTISRDNAKNTVYLQMNSLKPEDTAVYYCAARPLYGYGYWGQGTQVTVSS | high polyreactivity
15 | QVQLVESGGGLVQAGGSLRLSCAASGFTLGGYAMGWYRQAPGKEREFVAAISGRGGRTYYADSVKGRFTISRDNAKNTVYLQMNSLKPEDTAVYYCAAPTNHWTRLSGDYWGQGTQVTVSS | high polyreactivity
16 | QVQLVESGGGLVQAGGSLRLSCAASGFTLGNYAMGWYRQAPGKERELVAVITSGGRTYYADSVKGRFTISRDNAKNTVYLQMNSLKPEDTAVYYCNTKVYYYYRAVVDFDYWGQGTQVTVSS | low polyreactivity
17 | QVQLVESGGGLVQAGGSLRLSCAASGFTLGRNAMGWYRQAPGKERELVASISGRGGSSYYADSVKGRFTISRDNAKNTVYLQMNSLKPEDTAVYYCAARGVSGKYYYWGQGTQVTVSS | high polyreactivity
18 | QVQLVESGGGLVQAGGSLRLSCAASGFTLGTYAMGWYRQAPGKERELVAAISRGGGITYYADSVKGRFTISRDNAKNTVYLQMISLKPEDTAVYDCAADWRYWRWAFDYWGQGTQVTVSS | high polyreactivity
19 | QVQLVESGGGLVQAGGSLRLSCAASGFTLGWYAMGWYRQAPGKERELVAAISRSGGSTYYADSVKGRFTISRDNAKNTVYLQMNCLKPEDTGVYYCAAEVNYAGRAVWSYYWGQGTQVTVSW | high polyreactivity
20 | QVQLVESGGGLVQAGGSLRLSCAASGFTLIHYAMGWYRQAPGKERELVAGITTSGGSTYYADSVKGRFTISRDNAKNTGYLQMNSLKPEDTAVYYCNAEYRRRPKLGDEDEYWGQGTQVTVSS | high polyreactivity
21 | QVQLVESGGGLVQAGGSLRLSCAASGFTLKRYAMGWYRQAPGKERELVAAISTGGSTYYADSVKGRFTISRDNAKNTVYLQMNSLKPEDTAVYYCAAKRYNRLRSYRYSDREDYWGQGTQVTVSS | high polyreactivity
22 | QVQLVESGGGLVQAGGSLRLSCAASGFTLKYNTMGWYRPAPGKERELVAAISRIGGRTYYADSVKGRFTISRDYAKNTVYLHKNSLKPEDTAVYYCAAVYRVCWRTYGYWGQGTQVTVSS | high polyreactivity

Row | Sequence | polyreactivity (PSR sort gate)
23 | QVQLVESGGGLVQAGGSLRLSCAASGFTLQGYAMGWYRQAPGKERELVAAIRWIGTSTYYADSVKGRFTISRDIAKNTVYLQMNSLKPEDTAVYYCAAYRYNTPFGYWGQGTQVTVSS | high polyreactivity
24 | QVQLVESGGGLVQAGGSLRLSCAASGFTLQVYDMGWYRQAPGKERELVADISGSGDSTNYADSVKGRFTISRDNAKNTVYLQMNSLKPEDTAVYYCAAEVRGGYYGYDYWGQGTQVTVSS | low polyreactivity
25 | QVQLVESGGGLVQAGGSLRLSCAASGFTLRLYTMGWYIQAPGKERELVAAISRSGGSTYYADSVKGRFTISRDNAKNTVYLQMNSLKPEDPAVYYCNAKNGRPGFNMYHWGQGTQVTVSS | high polyreactivity
26 | QVQLVESGGGLVQAGGSLRLSCAASGFTLRRNAIGWYRQAPGKERELVAAISSSGSTYYADSVKGRFTISRDNAKNTVYLQMYSLKPEDTAVYYCAAQPGRRAGRSGFDYWGQGTQVNVSS | high polyreactivity
27 | QVQLVESGGGLVQAGGSLRLSCAASGFTLSRYVMGWYRQAPGKERELVATISTDTGDTYYADSVKGRFTISRDNAKNTVYLQMNSLKPEDTAVYYCAVEEWYIYLDLYWSYYYWGQGTQVTVSS | high polyreactivity
28 | QVQLVESGGGLVQAGGSLRLSCAASGFTLSYYAMGWYRQAPGKERELVAAMTWSDTSTYYADSVKGRFTISRDKAKNTVYVQMNSLKPEDTAVYYCAAEDEWVTWGWGYYYWGQGTQVTVSS | high polyreactivity
29 | QVQLVESGGGLVQAGGSLRLSCAASGFTLWLNAMGWYRQAPGKERELVAAITTSDDGTYYADSVKGRFTISRDNAKKTVYLQMNSLKPEDTAVYYCAADYYSVLYDYWGQGTQVTVSS | low polyreactivity
30 | QVQLVESGGGLVQAGGSLRLSCAASGFTLYYYDKGWYRQSPGKERELVAAISYSGGTTYYADSVKGRFTISRDNAKNTVYLQMNSLNPDDTAVYYCAAEVGGYWADEYLGYDYWGLGTQVTVSS | low polyreactivity
31 | QVQLVESGGGLVQAGGSLRLSCAASGFTRIYAMGWYRQAPGKERELVAAISQRGGRTYYADSVKGRFTISRDNAKNTVYLQMNSLKPEDTAVYYCAVRGPYQGRTRYYYWGQGTQVTVSS | high polyreactivity
32 | QVQLVESGGGLVQAGGSLRLSCAASGFTSDAYAMGCYRQAPGKDRELVAAISGSGDITYYADSVKGRFTISRDNAKYTVYFQMNSLKPEDTAVYYCSVGSYYAWFYYWGQGTQVTVSS | high polyreactivity
33 | QVQLVESGGGLVQAGGSLRLSCAASGFTSEYNAMGWYRQAPGNERELVAAITSGGSTYYADSVEGRFTISRDNAKNTVYLQMNSLKPEDTAVDYCAADYYVWGYLLEYGGQGTQVTVSS | high polyreactivity
34 | QVQLVESGGGLVQAGGSLRLSCAASGFTSLIYAMGWSRQAPGKESELVATITWGGGSTYADSVKGRFTISRDNAKNTVYLQMNSLKPEDTAVYYCNADIYDSWDYATVYSDRYDYWGQGTQVTVSS | low polyreactivity
35 | QVQLVESGGGLVQAGGSLRLSCAASGFTSLVNAMGWYRQAPGKERELVAAITGGGSTNYADSVKGRFTISRDNAKNTVYLQMNSLKPEDTAVYYCNAVGYYGYPRIPQFYAFAFYYWGQGTQVTVSS | low polyreactivity
36 | QVQLVESGGGLVQAGGSLRLSCAASGFTSNYYAMGWYRQAPGKERELVAAITTGGSTHYADSVKGRFTISRDNAKNTVYLQMNSLKPEDTAVYYCAAGTNRQQQRYFHHGGYYQYNYWGQGTQVTVSS | low polyreactivity
37 | QVQLVESGGGLVQAGGSLRLSCAASGFTSSQYAMGWYRQAPGKERELVAAITSSGSSTYYADSVKGRFTISRDNAKNTVYLQMNSLKPEDTAVYYCNTDAYHRYPGSVWYYYWGQGTQVTVSS | high polyreactivity
38 | QVQLVESGGGLVQAGGSLRLSCAASGFTSWQYAMGWSIQAPGKERELVAAISVSGASTYYADSVKGRFTISRDNAKNTVYLQMNSLKPEDTAVYYCAAAYVRYPTTRYYYWGQGTQVTVSS | high polyreactivity
39 | QVQLVESGGGLVQAGGSLRLSCAASGFTVGYNAMGWYRQAPGKERELVAAIDKRGDSTYADSVKGRFTISRDNAKNTVYLQMNSLKPEDTAVYYCAADSDSKYNYGFLWDTYESWGQGTQVTVSS | low polyreactivity
40 | QVQLVESGGGLVQAGGSLRLSCAASGFTVTWYAMAWYRQAPGKERELVASISRSGGSTYYADSVKGRFTISRDNAKNTVSLQMISLKPEDSAVYYCAAVSRTRSYDYWRQGTQVTVSS | high polyreactivity
41 | QVQLVESGGGLVQAGGSLRLSCAASGFTVYKYVKGWYRQAPGKERELVAAITTSGGSTYYADSVKGRFTISRDNPKNTVYLQMNSLKPEDTAVYYCNARSLHTSEGDYWGQGTQVTVSS | low polyreactivity
42 | QVQLVESGGGLVQAGGSLRLSCAASGFTYGSNAMGWYRQAPGKERELVATISRRGGRTYYADSVKGRFTISRDNAKNTVYLQMNSLKPEDTAVYYCAADRSRPGYDYWGQGTQVTVSS | high polyreactivity
43 | QVQLVESGGGLVQAGGSLRLSCAASGFTYLYNAMGWYRQAPGKERELVASINSGGSTNYADSVKGRFTISRDNAKNSVYLQMNSLKPEDTAVYFCNAKRLVRKGDYWGQGTQVTVSS | low polyreactivity
